For this assay, the target named is full length spike (S) protein of SARS-CoV-2 (SARS-CoV-2) (UniProt P0DTC2). The assay can be described thus: cell-based or functional assay.

Turning to VRC01 (antibody), the Neutralizing activity (%) Mean at 0.0228624 µg/ml is 13.2%, the Neutralizing activity (%) Mean at 0.0685871 µg/ml stood at 10.4%, the Neutralizing activity (%) Mean at 0.2057613 µg/ml amounted to 14.4% and the Neutralizing activity (%) Mean at 0.6172839 µg/ml was found to be 24.9%. This substance also yielded a Neutralizing activity (%) Mean at 1.851852 µg/ml of 8.1%, a Neutralizing activity (%) Mean at 5.555555 µg/ml of 27.1%, a Neutralizing activity (%) Mean at 16.66667 µg/ml of 26.6% and a Neutralizing activity (%) Mean at 50 µg/ml of 33.9%.

For the origin of these results see patent US20210292392A1.
